Test results: the supplement of paper PMC10567573

B1: ZNF207 (parent)
chain: FPSAGQAQAAVQGPVGTDFKPLNS
B2: C19orf51 (parent)
chain: FAPQTGARPSETFARFCKSQESAL

Variants of: B1
Experiment: protein stability index of a GFP-peptide fusion (GPS, HEK-293T) (PSI 1-6); higher = more stable
Conditions: c terminus: a fixed tail appended
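Further: lentivirally expressed fusions sorted by FACS into six bins by GFP to DsRed ratio, PSI derived from sequencing read proportions per bin multiplied by bin number.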

Protein stability index, by site and new letter:
S24: I 2.98; K 3.71; R 3.15; Y 2.63; T 3.37; C 3.31; H 3.73; D 4.02; G 3.15; N 3.92; Q 3.43; F 2.63; V 3.19; E 3.77; W 1.89; M 3.08; P 3.54; L 3.12

Variants of: B2
Experiment: as above
Conditions: c terminus: a fixed tail appended

Protein stability index, by site and new letter:
R8: S 2.38; Y 1.81; V 2.1; M 1.87; H 2.88; E 2.65
F13: L 2.54; E 1.98; H 1.48; V 2.92; A 1.89; G 2; R 1.94; M 1.92; D 1.86; C 3.95; P 1.07; K 2.31; S 1.41
A14: C 1.69; Q 2.63; R 1.82; G 1.74; M 3.45; Y 3.2
S22: V 1.8; L 2.08; E 1.58; Y 1.93; C 2.31
F1: K 3.54; Y 4.05; C 1.38; N 3.87; G 4.63; T 2.49; P 3.71; D 4.78
F16: G 2.38; E 1.54; D 1.77; C 2.62; T 2.52; H 2.07; R 1.4; K 2.31; A 2.44
A23: F 2.44; R 3.52; V 1.68; L 2.84; P 2.46; I 1.89; H 3.08; C 1.55
Q20: F 1.73; M 1.72; I 2.92; N 1.76; P 2.65; T 3.01; H 1.89
S10: N 1.72; G 2.46; H 2.76
A7: K 1.53; M 1.77
P3: I 1.72; F 1.7; D 2.79; L 1.5; V 1.95; C 1.62; A 1.05
E21: R 4.11; F 1.76; W 3.29; D 2.04; K 1.85
L24: Y 3.96; F 3.1; A 3.59; M 1.56; K 2.02
T5: G 3.11; N 2.01; Q 2.47; Y 2.78
E11: N 3.64; K 1.03; M 3.05; G 1.54; D 1.85; L 2.27
A2: W 2.02; T 1.61; P 2.16; M 1.45; N 1.04; F 1.88; S 1.9; Y 2.59
R15: F 1.72; K 2.48; I 2.75; C 3.88; D 1.27; V 3.42; A 2.94
K18: P 2.61; T 2.6; V 2.45; N 1.3; I 2.29
G6: C 1.06; Q 1.36; T 2.51; K 2.51; V 2.13; D 2.04
T12: R 2.39; F 2.96; H 1.87; Y 2.48
C17: G 3.94; N 2.79; D 1.68; L 1.42; A 2.9; P 1.9; V 2.31
S19: C 3.45; Q 1.43; R 5.04; G 2.82
P9: N 2.23; C 3.58; M 2.92; W 1.65; H 2.82
Q4: H 2.21; K 1.99; S 2.6; R 1.94; L 4.02; Y 2.21; M 1.65; D 2; F 1.98
